Measured values reported in US20220324953A1 (JIANGSU HENGRUI MEDICINE, published 2022).
Where a chain is given by its changes, count along the chain named. Each block holds one binder with its values, some of them ahead of it.

What was measured:
[1] = molecular target: T1, human CTGF (antigen of the Biacore assays) (human, UniProt P29279 27-349); assay: Biacore, CTGF immobilised, antibody 150 µg/ml then 50 nM TGF-β1 (competitor TGF-β1)
T1 construct: also called antigen human CTGF; human CTGF protein
T1 sequence (looked up): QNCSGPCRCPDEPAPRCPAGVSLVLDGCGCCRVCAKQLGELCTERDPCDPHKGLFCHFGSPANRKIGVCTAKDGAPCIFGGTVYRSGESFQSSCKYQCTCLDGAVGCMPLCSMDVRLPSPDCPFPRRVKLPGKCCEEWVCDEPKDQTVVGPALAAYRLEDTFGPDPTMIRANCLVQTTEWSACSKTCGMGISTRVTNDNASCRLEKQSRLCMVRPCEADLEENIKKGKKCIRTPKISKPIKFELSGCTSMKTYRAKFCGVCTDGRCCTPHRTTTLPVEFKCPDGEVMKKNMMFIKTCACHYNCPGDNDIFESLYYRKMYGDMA
Protocol: First, the antigen human CTGF was immobilized onto a CMS biosensor chip (Cat. # BR-1005-30, GE) by amino coupling, with an immobilization level of 1500 RU, and then a high concentration of CTGF antibody (150 μg/ml) was allowed to flow through the surface of the chip for 150 s; 50 nM TGF-β1 protein was injected for 120 s, and the reaction signals were detected in real time with the Biacore T200 instrument to generate a binding and dissociation curve. After the dissociation was completed in each of the experimental cycles, the biosensor chip was washed and regenerated with regeneration buffer.
The resulting experimental data were statistically analyzed with GE Biacore T200 Evaluation version 3.0 software.

[2] = molecular target: T2, mouse CTGF (antigen of the Biacore assay) (mouse, UniProt P29268 26-348); assay: Biacore, antibody captured on Protein A, mouse CTGF in flow, 1:1 fit
T2 construct: also called mouse CTGF protein
T2 sequence (looked up): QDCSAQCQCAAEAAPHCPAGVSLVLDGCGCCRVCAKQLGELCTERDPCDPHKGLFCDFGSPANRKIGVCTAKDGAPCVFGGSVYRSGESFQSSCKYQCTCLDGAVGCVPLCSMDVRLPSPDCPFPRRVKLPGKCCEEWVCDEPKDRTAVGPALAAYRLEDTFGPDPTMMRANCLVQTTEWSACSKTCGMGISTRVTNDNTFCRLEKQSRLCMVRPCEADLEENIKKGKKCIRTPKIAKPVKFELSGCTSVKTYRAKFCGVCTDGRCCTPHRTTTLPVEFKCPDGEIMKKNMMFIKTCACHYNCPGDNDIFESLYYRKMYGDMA
In short: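 Antibodies captured on a Protein A chip, with human or mouse CTGF flowed over in HBS-EP running buffer; association and dissociation recorded in real time. Surface regenerated with glycine-HCl pH 1.5 between cycles; kinetics fitted to a 1:1 model.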

[3] = molecular target: T3, human CTGF protein (R&D, Cat No. 9190-CC) (human, UniProt P29279 27-349); assay: ELISA, plate coated with CTGF (R&D 9190-CC)
T3 construct: Bought protein; also called CTGF recombinant protein; CTGF (R&D)
T3 sequence: T1 sequence (looked up) with H57D
Protocol: The binding activity of anti-human CTGF antibody to human CTGF protein was tested by ELISA assay and Biacore. A 96-well microtiter plate was directly coated with the CTGF recombinant protein. The signal strength upon the addition of the antibody was used to determine the binding activity of the antibody to CTGF. The specific experimental procedures were as follows:
The CTGF protein (R&D, Cat No. 9190-CC) was diluted with PBS, pH 7.4 (Shanghai Yuanpei, Cat No. B320) buffer to a concentration of 0.2 μg/ml, 50 μl/well of which was added into the 96-well microtiter plate (Corning, Cat No. CLS3590-100EA), and incubated in an incubator at 37° C. for 2 hours or at 4° C. overnight (16-18 hours). The liquid was removed, 250 μl/ well blocking solution (5% skim milk (BD skim milk, Cat No.232100) diluted in PBS) was added, and incubated in an incubator at 37° C. for 3 hours or at 4° C. overnight (16-18 hours) for blocking. After the blocking was finished, the blocking solution was removed, the plate was washed for 5 times with PBST buffer (PBS containing 0.1% Tween-20, pH 7.4), 50 μl/well of various concentrations of each of the test antibodies (antibodies purified from hybridoma or humanized antibodies) diluted with sample dilution solution were added, and incubated in an incubator at 37° C. for 1 hours. After the incubation was finished, the plate was washed for 3 times with PBST, 50 μl/well of HRP-labeled goat anti-mouse secondary antibody (Jackson Immuno Research, Cat No. 115-035-003) or goat anti-human secondary antibody (Jackson Immuno Research, Cat No. 109-035-003) diluted with sample dilution solution was added, and incubated at 37° C. for 1 hour. The plate was washed for 3 times with PBST, 50 μl/well of TMB chromogenic substrate (KPL, Cat No. 52-00-03) was added, incubated at room temperature for 5-10min, and 50 μl/well of 1 M H₂SO₄ was added to stop the reaction. The absorbance value was read by a microplate reader (Molecular Devices, VERSA max) at a wavelength of 450 nm, and the data was analyzed with GraphPad Prism 5. The binding of CTGF antibody to human CTGF protein was calculated as EC50 value.

B5: Hu147-31wk (antibody, human IgG1, kappa, V domains shown)
VH: EVQLVESGGGLVQPGGSLRLSCAASGFSFNTYAMNWVRQAPGKGLEWVARIRTKSNNYATYYADSVKDRFTISRDDSESSLYLQMNSLKTEDTAVYYCVETGFAYWDQGTLVTVSS
VL: EIVLTQSPATLSLSPGERATLSCSASSSVSYMHWFQQKPGQSPRLLIYSTSNLASGIPARFSGSGSGTDYTLTISSLEPEDFAVYYCQQRSSYPLTFGQGTKLEIKR
Function-blocking percentage (%) [1]: 55%
Kd [2]: 2790 pM
koff [2]: 0.107 s⁻¹
kon [2]: 3.83e+07 M⁻¹ s⁻¹
EC50 [3]: 56 pM

B6: Hu147-23wk (antibody, human IgG1, kappa, V domains shown)
VH: B5 VH with S28T, E78K, S79N
VL: B5 VL with R44K, L46W, I57V
Function-blocking percentage (%) [1]: 54.6%
Kd [2]: 2120 pM
koff [2]: 0.173 s⁻¹
kon [2]: 8.18e+07 M⁻¹ s⁻¹
EC50 [3]: 58 pM

B7: Hu147-32wk (antibody, human IgG1, kappa, V domains shown)
VH: B5 VH
VL: B5 VL with R44K
Function-blocking percentage (%) [1]: 55.2%
Kd [2]: 2490 pM
koff [2]: 0.343 s⁻¹
kon [2]: 1.37e+08 M⁻¹ s⁻¹
EC50 [3]: 63 pM

B8: Hu147-33wk (antibody, human IgG1, kappa, V domains shown)
VH: B5 VH
VL: B5 VL with R44K, L46W, I57V
Function-blocking percentage (%) [1]: 57.3%
Kd [2]: 1930 pM
koff [2]: 0.174 s⁻¹
kon [2]: 9.01e+07 M⁻¹ s⁻¹
EC50 [3]: 54 pM

B9: Hu147-34wk (antibody, human IgG1, kappa, V domains shown)
VH: B5 VH
VL: DIQMTQSPSSLSASVGDRVTITCSASSSVSYMHWFQQKPGKSPKLLIYSTSNLASGVPSRFSGSGSGTDYTLTISSLQPEDFATYYCQQRSSYPLTFGQGTKLEIKR
Function-blocking percentage (%) [1]: 56.2%
EC50 [3]: 134 pM

The next binders have a lower EC50 [3] than those just listed; values first:

Function-blocking percentage (%) [1]: 55.5%
Kd [2]: 18.4 pM
koff [2]: 0.00117 s⁻¹
kon [2]: 6.36e+07 M⁻¹ s⁻¹
EC50 [3]: 44 pM
B1: Hu164-67wl (antibody, human IgG1, lambda)
heavy: not shown
light: ETVVTQEPSLTVSPGGTVTLTCRSSIGAVTTSNYANWVQQKPGQAFRGLIGGTSNRAPWTPARFSGSLLGGKAALTLSGVQPEDEAEYYCALWYSTHYVFGGGTKLTVLGQPKANPTVTLFPPSSEELQANKATLVCLISDFYPGAVTVAWKADGSPVKAGVETTKPSKQSNNKYAASSYLSLTPEQWKSHRSYSCQVTHEGSTVEKTVAPTEC

Function-blocking percentage (%) [1]: 50.8%
Kd [2]: 3110 pM
koff [2]: 0.374 s⁻¹
kon [2]: 1.2e+08 M⁻¹ s⁻¹
EC50 [3]: 45 pM
B2: Hu147-11wk (antibody, human IgG1, kappa, V domains shown)
VH: B5 VH with S28T, N30S, A49G, E78K, S79N
VL: B5 VL

Function-blocking percentage (%) [1]: 51.6%
Kd [2]: 3090 pM
koff [2]: 0.116 s⁻¹
kon [2]: 3.75e+07 M⁻¹ s⁻¹
EC50 [3]: 46 pM
B3: Hu147-12wk (antibody, human IgG1, kappa, V domains shown)
VH: B5 VH with S28T, N30S, A49G, E78K, S79N
VL: B5 VL with R44K

Function-blocking percentage (%) [1]: 53.3%
Kd [2]: 2550 pM
koff [2]: 0.146 s⁻¹
kon [2]: 5.73e+07 M⁻¹ s⁻¹
EC50 [3]: 43 pM
B4: Hu147-13wk (antibody, human IgG1, kappa, V domains shown)
VH: B5 VH with S28T, N30S, A49G, E78K, S79N
VL: B5 VL with R44K, L46W, I57V
